The text below walks through data of patent US20260285984 (published 2026).

The target in this assay is PD-1 (human). Description: SPR (range 50-70 nM).
Sequence of PD-1 (human) (chain, as listed by the source): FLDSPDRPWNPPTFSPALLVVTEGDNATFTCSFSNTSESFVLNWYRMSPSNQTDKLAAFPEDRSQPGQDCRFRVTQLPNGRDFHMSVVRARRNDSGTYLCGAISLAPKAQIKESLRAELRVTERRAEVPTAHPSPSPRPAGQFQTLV

B1: PD-1 agonist VHH (antibody, V domains shown)
VH: EVQLVESGGALVQPGGSLRLSCAASGFTFSSYAMTWVRQAPGKGPEWVSAIASDGASTSYLDSVKGRFTVSRDNAKNTLYLQMNSLKPEDTAVYYCARGGYLTYDRYGQGTQVTVSS
One may read the Kd as the constant that tells how readily two partners part at equilibrium. The low end stands for a tighter complex, the high end for a looser complex. In turn, B1 had a Kd of approximately 60 nM.
